US20180355013A1

Molecular target: NKG2D ligands on NKG2D ligand-expressing cells
Assay: summary of the Examples; assay not given

hNKG2Dx2-hIgG1 (Fc fusion)
fold improved binding avidity against monomeric NKG2D-Fc chimeras: < 100 fold
